In PMC10942467 (bioRxiv, 2024):

Target: 6X His-Raf1 (purified recombinant) (UniProt P04049 1-648, fluorescent label in the MST (kind and site not stated))
Test: MST

B1: GLS (purified recombinant) (enzyme)
chain: HPWWGGGGWPAEPLARGLSSSPSEILQELGKGSTHPQPGVSPPAAPAAPGPKDGPGETDAFGNSEGKELVASGENKIKQGLLPSLEDLLFYTIAEGQEKIPVHKFITALKSTGLRTSDPRLKECMDMLRLTLQTTSDGVMLDKDLFKKCVQSNIVLLTQAFRRKFVIPDFMSFTSHIDELYESAKKQSGGKVADYIPQLAKFSPDLWGVSVCTVDGQRHSTGDTKVPFCLQSCVKPLKYAIAVNDLGTEYVHRYVGKEPSGLRFNKLFLNEDDKPHNPMVNAGAIVVTSLIKQGVNNAEKFDYVMQFLNKMAGNEYVGFSNATFQSERESGDRNFAIGYYLKEKKCFPEGTDMVGILDFYFQLCSIEVTCESASVMAATLANGGFCPITGERVLSPEAVRNTLSLMHSCGMYDFSGQFAFHVGLPAKSGVAGGILLVVPNVMGMMCWSPPLDKMGNSVKGIHFCHDLVSLCNFHNYDNLRHFAKKLDPRREGGDQRVKSVINLLFAAYTGDVSALRRFALSAMDMEQRDYDSRTALHVAAAEGHVEVVKFLLEACKVNPFPKDRWNNTPMDEALHFGHHDVFKILQEYQVQYTPQGDSDNGKENQTVHKNLDGLL
Kd: 183 nM
